According to article PMC11151596, “Improving the enzymatic activity and stability of N-carbamoyl hydrolase using deep learning approach” (Microbial Cell Factories, 2024):

Substrate: NC(=O)NC(C(=O)O)c1ccc(O)cc1
Assay: HPLC of D-HPG formed, double reciprocal plot
Type: biochemical, Agrobacterium sp. KNK712
Details: 50 mM Tris-HCl pH 7.5, 65 °C, 0.1-10.0 mM CpHPG
Source text: HPLC of D-HPG formed, double reciprocal plot on DCase (N-carbamoyl-D-amino acid amidohydrolase, EC 3.5.1.77; N-carbamoyl hydrolase)

B1: DCase (N-carbamoyl-D-amino acid amidohydrolase, EC 3.5.1.77; N-carbamoyl hydrolase) (Agrobacterium sp. KNK712) (protein)
chain: MTRQMILAVGQQGPIARAETREQVVVRLLDMLTKAASRGANFIVFPELALTTFFPRWHFTDEAELDSFYETEMPGPVVRPLFEKAAELGIGFNLGYAELVVEGGVKRRFNTSILVDKSGKIVGKYRKIHLPGHKEYEAYRPFQHLEKRYFEPGDLGFPVYDVDAAKMGMFICNDRRWPEAWRVMGLRGAEIICGGYNTPTHNPPVPQHDHLTSFHHLLSMQAGSYQNGAWSAAAGKVGMEENCMLLGHSCIVAPTGEIVALTTTLEDEVITAAVDLDRCRELREHIFNFKQHRQPQHYGLIAEL
notes: pET-28a(+)-Case, N- and C-terminal His6 tags, expressed in E. coli BL21(DE3), Ni-NTA purified, about 37 kDa
Km: 2590 ± 220 µM | kcat: 7.98 ± 0.212 s⁻¹ | kcat/Km: 3080 ± 218 M⁻¹ s⁻¹
